Laboratory results reported in publication PMC7265321 (The Journal of Cell Biology, 2020).
Residue numbers refer to the chain shown, from its start. Each block holds one molecule with its values, some of them ahead of it.

What was measured:
MEL-26 [1] = biological target: MEL-26 (UniProt Q94420); experiment: Far-Western after SDS-PAGE; conditions: reference: unmodified wild type; sites S92
MEL-26 [2] = biological target: MEL-26 (UniProt Q94420); experiment: native dot blot of Katanin; conditions: reference: unmodified wild type; sites S92
[3] = biological target: T1, Katanin with MEI-1 S92D (6xHis-MEI-1 S92D / Strep-MEI-2) (C. elegans, UniProt P34808 1-472; O44740 1-280, S92D); experiment: overlay or dot blot
T1 sequence (looked up) 1: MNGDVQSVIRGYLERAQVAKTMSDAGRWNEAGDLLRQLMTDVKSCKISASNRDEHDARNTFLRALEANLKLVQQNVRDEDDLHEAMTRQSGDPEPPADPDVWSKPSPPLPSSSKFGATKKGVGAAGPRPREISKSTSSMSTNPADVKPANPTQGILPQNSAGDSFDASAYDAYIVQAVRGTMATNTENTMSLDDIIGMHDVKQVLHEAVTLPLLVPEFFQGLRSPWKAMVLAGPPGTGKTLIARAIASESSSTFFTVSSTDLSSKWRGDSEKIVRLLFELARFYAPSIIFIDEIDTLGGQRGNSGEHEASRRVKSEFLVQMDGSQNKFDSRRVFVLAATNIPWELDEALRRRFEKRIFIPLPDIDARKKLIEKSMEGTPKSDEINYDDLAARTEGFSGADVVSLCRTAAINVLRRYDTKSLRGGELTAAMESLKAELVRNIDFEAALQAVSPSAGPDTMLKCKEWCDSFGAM
T1 sequence (looked up) 2: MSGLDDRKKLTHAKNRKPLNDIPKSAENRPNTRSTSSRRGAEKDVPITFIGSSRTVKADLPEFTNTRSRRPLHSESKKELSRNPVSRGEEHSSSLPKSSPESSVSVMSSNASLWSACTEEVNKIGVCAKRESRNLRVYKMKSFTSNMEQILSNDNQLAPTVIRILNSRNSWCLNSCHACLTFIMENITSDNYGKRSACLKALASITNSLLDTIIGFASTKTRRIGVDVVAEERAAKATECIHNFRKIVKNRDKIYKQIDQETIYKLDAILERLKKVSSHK

MEI-1 S92-aaPho-6xHis = biological target: T2, MEI-1 S92-aaPho-6xHis (C. elegans, UniProt P34808 1-472, phosphoserine at 92 (100% by mass spectrometry)); experiment: far-Western
T2 sequence (looked up): T1 sequence (looked up) 1 with D92S

6xHis-MEI-1 S92D = biological target: T3, 6xHis-MEI-1 S92D (C. elegans, UniProt P34808 1-472, S92D); experiment: far-Western
T3 sequence (looked up): T1 sequence (looked up) 1

- binding against the reference (MEL-26 [1]): stronger
- binding against the reference (MEL-26 [2]): stronger
Molecule: MEI-1 (Katanin p60 catalytic subunit) (from UniProt P34808) S92-aaPho (phosphoserine by genetic code expansion)

- binding result [3]: binds
- binding result (MEI-1 S92-aaPho-6xHis): binds
- binding result (6xHis-MEI-1 S92D): binds
B1: GST-MEL-26 (natural protein, C. elegans, UniProt Q94420 1-395, looked up)
chain: MEPRIDGGVFIGGIGNSGNEMCSNGVPALGVSSQTEIKVEKVQHTWTVKNFSHCYQEYLENFVYLQRGDEQLTWSIKIYPKGNGENNKDFVFLCLNRVINNNVKAGKIGFKSQFKLRTAENKDIEMRIHPNPSHSDYVSYIKRDVLFPQIMPRDMIIVNVEIDVAVETITTTNEPIQFEPTNSEQQLIEDYQRLFSQELLCDFAINVNGKIIRAHKAVLAARSPVFNAMLTHQDTDEAKSSMMYINDMDYDVIYEMVYYIYCGRCNKDITDMATALLIAADKYRLEELKSHCEKYLVENINIENACSLLIIGDLYSAPKLRKRAVTYILARPKNVTGTPGWEDILKGHPNLITDIFSQIDRQSSTGATSSVSNLPGVPMDIPGITGNIVPPPSGL
